Results on one molecule are retold here after publication PMC5337984, “CTCF participates in DNA damage response via poly(ADP-ribosyl)ation”.

The target of this data set is T1, CTCF ZNF1-11 (GST-zinc finger domain) (human, UniProt P49711 266-577).
T1 sequence: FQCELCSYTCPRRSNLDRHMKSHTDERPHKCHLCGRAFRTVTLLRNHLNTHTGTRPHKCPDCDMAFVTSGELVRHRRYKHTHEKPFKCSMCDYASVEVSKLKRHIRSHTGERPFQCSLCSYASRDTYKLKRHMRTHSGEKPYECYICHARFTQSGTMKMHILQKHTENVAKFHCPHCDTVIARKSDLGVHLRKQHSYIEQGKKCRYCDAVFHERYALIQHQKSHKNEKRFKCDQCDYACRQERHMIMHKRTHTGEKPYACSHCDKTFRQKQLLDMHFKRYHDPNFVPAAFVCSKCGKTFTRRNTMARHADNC
The data set can be described thus: EMSA; 50 mM MgCl2; 200 ng poly(dI/dC); EMSA: 25 mM HEPES pH 8.0, 50 mM KCl, 50 mM MgCl2, 1% NP40, 10% glycerol, 200 ng poly(dI/dC), 20 min at 4 C; 1 pmol protein, 0.5 pmol DNA. As to conditions: protein: recombinant; tags: GST (pGEX-4T-1; N-terminal); label: 32P; blunt (only one strand printed; described as duplex oligonucleotide). On the technique in general: In EMSA bound probe runs differently from free probe, usually more slowly.

B1: insulator DNA 45-mer (dsDNA)
DNA 1: CCCCCAGGGATGTAATTACGTCCCTCCCCCGCTAGGGGGCAGCAG
DNA 2: CTGCTGCCCCCTAGCGGGGGAGGGACGTAATTACATCCCTGGGGG
Consider B1, for which the binding result was “binds”.
